Read-outs that look alike come from different tables or passages of the source. One block for each molecule: values may come before it. Numbered stars: 1 amine (or outer) side, 2 acyl side, 3 side chain; on linkers, the order of the positions; unused ones are H or OH. Bridge positions count the residues as written; N and C are the ends. Square brackets hold non-standard residues; d marks the D form. Ends that are not written are not given here. KCOpipzaa = N6-(4-(carboxymethyl)piperazine-1-carbonyl)-L-lysine, O=C(NCCCC[C@H](N[*:1])C(=O)[*:2])N1CCN(CC(=O)[*:3])CC1; 3Pal(6-Ph) = N[C@@H](Cc1ccc(-c2ccccc2)nc1)C(=O)O; Phe(4-COOH) = N[C@@H](Cc1ccc(C(=O)O)cc1)C(=O)O; NMePhe(3-Cl) = CN[C@@H](Cc1cccc(Cl)c1)C(=O)O; NMePhe(4-Me) = CN[C@@H](Cc1ccc(C)cc1)C(=O)O; Bip = N[C@@H](Cc1ccc(-c2ccccc2)cc1)C(=O)O; Phe(4-F) = N[C@@H](Cc1ccc(F)cc1)C(=O)O; Ala(4-THP) = N[C@@H](CC1CCOCC1)C(=O)O; cisHyp = O=C(O)[C@@H]1C[C@H](O)CN1; NMeF = CN[C@@H](Cc1ccccc1)C(=O)O; Aad = N[C@@H](CCCC(=O)O)C(=O)O; Cha = N[C@@H](CC1CCCCC1)C(=O)O; βAla = NCCC(=O)O
Key:
BMP7 [1] = molecular target: T1, BMP7 (UniProt P18075 293-431); assay: cell-based or functional assay
T1 sequence (looked up): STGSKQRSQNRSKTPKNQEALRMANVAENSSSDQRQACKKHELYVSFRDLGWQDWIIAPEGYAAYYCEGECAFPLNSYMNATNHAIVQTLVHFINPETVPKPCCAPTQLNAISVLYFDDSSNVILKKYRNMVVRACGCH

BMP4 [2] = molecular target: T2, BMP4 (UniProt P12644 293-408); assay: cell-based or functional assay
T2 sequence (looked up): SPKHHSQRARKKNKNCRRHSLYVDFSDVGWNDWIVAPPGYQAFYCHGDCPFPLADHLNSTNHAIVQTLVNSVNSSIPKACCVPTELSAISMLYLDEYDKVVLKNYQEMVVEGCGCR

BMP7 [3] = molecular target: T1, BMP7; assay: cell-based or functional assay; remark: listed apart in the source
BMP4 [4] = molecular target: T2, BMP4; assay: cell-based or functional assay; remark: listed apart in the source
BMP4 [5] = molecular target: T3, BMP4 (Homo sapiens, UniProt P12644); assay: BMP4 signal transduction inhibitory activity: SMAD1 phosphorylation by BMP4 stimulus, AlphaLISA SureFire, A549 cells; assay type: cell-based
T3 sequence (P12644 293-408): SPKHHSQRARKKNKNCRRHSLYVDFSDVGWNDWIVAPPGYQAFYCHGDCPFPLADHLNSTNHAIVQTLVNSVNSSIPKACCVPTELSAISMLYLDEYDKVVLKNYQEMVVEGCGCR

BMP7 [6] = molecular target: T4, BMP7 (Homo sapiens, UniProt P18075); assay: BMP7 signal transduction inhibitory activity: SMAD1 phosphorylation by BMP7 stimulus, A549 cells; assay type: cell-based
T4 sequence (P18075 293-431): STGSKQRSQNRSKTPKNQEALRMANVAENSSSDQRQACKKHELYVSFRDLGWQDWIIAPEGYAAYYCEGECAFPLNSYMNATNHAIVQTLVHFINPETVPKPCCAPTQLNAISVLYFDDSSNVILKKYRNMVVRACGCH
Outline: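 A549 cells were stimulated with 10 nM BMP7, and peptide inhibition of signalling was measured as SMAD1 phosphorylation. Peptides were tested at three concentrations, in sets ranging from 1–100 nM to 100–1,000 nM, or as eight-point 1/3 dilution series starting at 100 nM or 1,000 nM.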

BMP4 [7] = molecular target: T2, BMP4; assay: cell-based or functional assay; remark: listed apart in the source
BMP7 [8] = molecular target: T1, BMP7; assay: cell-based or functional assay; remark: listed apart in the source
BMP6 = molecular target: T5, BMP6 (UniProt P22004 382-513, limits assumed); assay: cell-based or functional assay
T5 sequence (looked up): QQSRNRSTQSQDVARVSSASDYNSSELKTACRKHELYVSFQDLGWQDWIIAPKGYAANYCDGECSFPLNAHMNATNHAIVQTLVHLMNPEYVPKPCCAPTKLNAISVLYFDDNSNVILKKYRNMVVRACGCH

BMP5 = molecular target: T6, BMP5 (UniProt P22003 317-454, limits assumed); assay: cell-based or functional assay
T6 sequence (looked up): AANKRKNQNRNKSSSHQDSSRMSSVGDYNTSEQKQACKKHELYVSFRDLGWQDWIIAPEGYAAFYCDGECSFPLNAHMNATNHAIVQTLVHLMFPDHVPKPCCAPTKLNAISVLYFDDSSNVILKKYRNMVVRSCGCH

BMP7 [9] = molecular target: T1, BMP7; assay: cell-based or functional assay; remark: listed apart in the source
BMP7 [10] = molecular target: T1, BMP7; assay: SPR (Biacore T200), BMP7 amine-coupled on CM5 chip, peptide as analyte, single cycle kinetics
Protocol: (§1) A CM5 sensor chip (Cytiva) was inserted into a BiacoreT200 (Cytiva). Three priming runs were performed using running buffer: HBS-EP+ (Cytiva). The system was then equilibrated at a flow rate of 30 μL/min. Subsequently, 50 μL of 60 mM EDC solution (Cytiva) and 50 μL of 650 mM NHS solution (Cytiva) were mixed and were allowed to react at a flow rate of 10 μL/min for 420 seconds. The resultant was diluted with a 10 mM acetic acid solution (pH 5.0), to prepare 150 μL of 0.2 μM BMP4/BMP7 solution. The solution was allowed to react at a flow rate of 10 μL/min for 420 seconds, and the BMP4/BMP7 was immobilized in a CM5 sensor chip. After immobilization, capping was performed by reacting with 1.0 M ethanolamine aqueous solution (Cytiva) at a flow rate of 10 μL/min for 420 seconds. A liquid prepared by dissolving each peptide at 10 mM in a DMSO solution was diluted with a running buffer so that the final concentration of the peptide-dissolved liquid would be 10 μM. Then, the peptide solutions (100 nM, 50 nM, 25 nM, 10 nM, and 5 nM) were prepared. […]
(§2) The kinetics evaluation model was Single Cycle Kinetics, and curve fitting was performed using Biacore T200 Evaluation Software Version 3.0 (Cytiva). The binding of peptides to BMP4/BMP7 was evaluated by performing least-squares curve fitting on the obtained sensorgram to calculate the KD value.

BMP4 [11] = molecular target: T2, BMP4; assay: SPR (Biacore T200), BMP4 amine-coupled on CM5 chip, peptide as analyte, single cycle kinetics
Protocol: as §1, §2

[12] = SMAD1 phosphorylation, BMP4 0.2 nM, peptide conc. in assay 0.2, 2, 20 nM
[13] = SMAD1 phosphorylation, BMP7 10 nM, peptide conc. in assay 1, 10, 100 nM

Molecule: 333 (FG[NMeF]G[Bip][dA]DD[Cha]A[NMeF]LHCG-NH2; not fully specified (N-terminus, bridges)) [compound 333]
aLISA BMP4 (0.2 nM) % inh (BMP4 [5]; [12]): ND (the inhibitory activity was less than 30% at the maximum concentration evaluated)
aLISA BMP7 (10 nM) % inh (BMP7 [6]; [13]): D (showed less than 30% of inhibitory activity in 10 nM-addition zone and showed 30% or more of inhibitory activity in 100 nM-addition zone)

Molecule: 98 ({CH2CO}-ERVYV[KCOpipzaa]R[3Pal(6-Ph)]SYP[Bip]Y[Phe(4-COOH)][Phe(4-COOH)]SC[βAla][dE]-OH; thioether N-17; not fully specified) [compound 98]
aLISA BMP4 (BMP4 [5]; inhibition of SMAD1 phosphorylation by BMP4 stimulus, A549 cells, peptides of Synthesis 2, classes A-C, ND): A (showed an inhibitory activity of 50% or more in a zone to which the peptide was added to in an amount of 0.2 nM)
aLISA BMP7 (BMP7 [6]; inhibition of SMAD1 phosphorylation by BMP7 stimulus, A549 cells, peptides of Synthesis 2, classes A-D, ND): C (showed less than 50% of inhibitory activity in 10 nM-addition zone and showed 50% or more of inhibitory activity in 100 nM-addition zone)

Molecule: 358 (FG[NMeF]G[Bip]GDE[Cha]A[NMeF]LHCG-NH2; not fully specified (N-terminus, bridges)) [compound 358]
aLISA BMP4 (0.2 nM) % inh (BMP4 [5]; [12]): ND (the inhibitory activity was less than 30% at the maximum concentration evaluated)
aLISA BMP7 (10 nM) % inh (BMP7 [6]; [13]): D (showed less than 30% of inhibitory activity in 10 nM-addition zone and showed 30% or more of inhibitory activity in 100 nM-addition zone)

Molecule: 388 (FG[NMeF]G[Bip]GDD[Cha]A[NMePhe(3-Cl)]LHCG-NH2; not fully specified) [compound 388]
aLISA BMP4 (0.2 nM) % inh (BMP4 [5]; BMP4 0.2 nM stimulus, peptide conc. in assay 2, 20, 200 nM): B (showed less than 30% of inhibitory activity in 20 nM-addition zone and showed 30% or more of inhibitory activity in 200 nM-addition zone)
aLISA BMP7 (10 nM) % inh (BMP7 [6]; BMP7 10 nM stimulus, peptide conc. in assay 10, 30, 90 nM): E (showed 30% or more of inhibitory activity in 10 nM-addition zone)

Molecule: 363 (FG[NMeF]G[3Pal(6-Ph)]GDE[Cha]A[NMeF]LHCG-NH2; not fully specified (N-terminus, bridges)) [compound 363]
aLISA BMP4 (0.2 nM) % inh (BMP4 [5]; [12]): ND (the inhibitory activity was less than 30% at the maximum concentration evaluated)
aLISA BMP7 (10 nM) % inh (BMP7 [6]; [13]): D (showed less than 30% of inhibitory activity in 10 nM-addition zone and showed 30% or more of inhibitory activity in 100 nM-addition zone)

Molecule: {CH2CO}-ERV[Phe(4-COOH)][Ala(4-THP)][KCOpipzaa]R[Bip]PYP[Bip]Y[Phe(4-COOH)][Phe(4-COOH)]SC[βAla][dE]-OH (thioether N-17 (inferred)) [BMP4 signal transduction inhibition peptide No. 181]
IC50 (nM), SMAD1 phosphorylation in A549 cells (BMP7 [9]): 1.6 nM
IC50 (nM), SMAD1 phosphorylation in A549 cells (BMP4 [7]): 0.052 nM

Now from value to molecule:

IC50 (nM), SMAD1 phosphorylation in A549 cells (BMP7 [1]): 2.7 nM
IC50 (nM), SMAD1 phosphorylation in A549 cells (BMP4 [2]): 0.08 nM
IC50 (nM), SMAD1 phosphorylation in A549 cells (BMP7 [3]): 5.74 nM
IC50 (nM), SMAD1 phosphorylation in A549 cells (BMP4 [4]): 0.13 nM
Molecule: recombinant Human Noggin Protein (R&D) (from UniProt Q13253 28-232)

IC50 (nM), SMAD1 phosphorylation in A549 cells (BMP4 [7]): 0.08 nM
Molecule: {CH2CO}-ERVYVDR[3Pal(6-Ph)]SYV[Bip]Y[Phe(4-COOH)][Phe(4-COOH)]SCG-NH2 (thioether N-17 (inferred)) [BMP4 signal transduction inhibition peptide No. 87 (SEQ ID NO: 87)]

IC50 (nM), SMAD1 phosphorylation in A549 cells (BMP7 [8]): 15.6 nM
IC50, SMAD1 phosphorylation, BMP6 3 nM (BMP6): 28.7 nM
IC50, SMAD1 phosphorylation, BMP5 2 nM (BMP5): 19.3 nM
Molecule: {CH2CO}-[Phe(4-F)]G[NMeF]G[3Pal(6-Ph)]GDE[Cha][Aad][NMePhe(4-Me)]L[cisHyp]C[βAla][dE]-OH (thioether N-14 (inferred)) [BMP7 signal transduction inhibition peptide SEQ ID NO: 417 (Example 6)]

IC50 (BMP4 [5]; Table 2-2, 277 from 20 nM (1/3), 417 from 300 nM (1/4), ND = IC50 was not calculated): 0.13 nM
IC50 (BMP4 [5]; Table 2, eight concentrations, ratio 1/3 from 2 nM, A549 cells): 0.08 nM
IC50 (BMP7 [6]; Table 2-2, 277 from 1,000 nM (1/3), 417 from 300 nM (1/4)): 5.74 nM
IC50 (BMP7 [6]; Table 2, eight concentrations, ratio 1/3 from 100 nM, ND = IC50 was not calculated in the evaluation systems): 2.7 nM
B1: Noggin: recombinant Human Noggin Protein (R&D), positive control; secreted protein that has BMP inhibitory activity (protein)
chain: QHYLHIRPAPSDNLPLVDLIEHPDPIFDPKEKDLNETLLRSLLGGHYDPGFMATSPPEDRPGGGGGAAGGAEDLAELDQLLRQRPSGAMPSEIKGLEFSEGLAQGKKQRLSKKLRRKLQMWLWSQTFCPVLYAWNDLGSRFWPRYVKVGSCFSKRSCSVPEGMVCKPSKSVHLTVLRWRCQRRGGQRCGWIPIQYPIISECKCSC

Kd (BMP7 [10]): 21.7 nM
Kd (BMP4 [11]): 2.1 nM
B2: BMP4 signal transduction inhibition peptide No. 84 (SEQ ID NO: 84) (peptide)
peptide: {CH2CO}-ERVYVDR[Bip]PYV[Bip]Y[Phe(4-COOH)][Phe(4-COOH)]SC[βAla][dE]-OH
modifications: thioether N-17
SMILES: CC(C)[C@@H]1NC(=O)[C@H](Cc2ccc(O)cc2)NC(=O)[C@H](C(C)C)NC(=O)[C@H](CCCNC(=N)N)NC(=O)[C@H](CCC(=O)O)NC(=O)CSC[C@@H](C(=O)NCCC(=O)N[C@H](CCC(=O)O)C(=O)O)NC(=O)[C@H](CO)NC(=O)[C@H](Cc2ccc(C(=O)O)cc2)NC(=O)[C@H](Cc2ccc(C(=O)O)cc2)NC(=O)[C@H](Cc2ccc(O)cc2)NC(=O)[C@H](Cc2ccc(-c3ccccc3)cc2)NC(=O)[C@H](C(C)C)NC(=O)[C@H](Cc2ccc(O)cc2)NC(=O)[C@@H]2CCCN2C(=O)[C@H](Cc2ccc(-c3ccccc3)cc2)NC(=O)[C@H](CCCNC(=N)N)NC(=O)[C@H](CC(=O)O)NC1=O
notes: thioether ring between N-terminal chloroacetyl and Cys17
